Assay results published in patent US12258605B2, “Alkane oxidation by modified hydroxylases” (The California Institute of Technology, priority 2005, dated 2025).

B1: 35-E11: P450 BM-3 variant, SEQ ID NO:7: 53-5H substitutions plus E464G and I710T (protein)
chain: TIKEMPQPKTFGELKNLPLLNTDKPVQALMKIADELGEIFKFEAPGCVTRYLSSQRLIKEACDESRFDKNLSQALKFFRDFSGDGLFTSWTHEINWKKAHNILLPSFSQQAMKGYHAMMVDIAVQLVQKWERLNADEHIEVSEDMTRLTLDTIGLCGFNYRFNSFYRDQPHPFIISMVRALDEVMNKLQRANPDDPAYDENKRQCQEDIKVMNDLVDKIIADRKARGEQSDDLLTQMLNGKDPETGEPLDDGNISYQIITFLIAGHETTSGLLSFALYFLVKNPHVLQKVVEEAARVLVDPVPSYKQVKQLKYVGMVLNEALRLWPTFPAFSLYAKEDTVLGGEYPLEKGDEVMVLIPQLHRDKTIWGDDVEEFRPERFENPSAIPQHAFKPFGNGQRACIGQQFALHEATLVLGMMLKHFDFEDHTNYELDIKETLTLKPEGFVVKAKSKKIPLGGIPSPSTGQSAKKVRKKAENAHNTPLLVLYGSNMGTAEGTARDLADIAMSKGFAPQVATLDSHAGNLPREGAVLIVTASYNGHPPDNAKQFVDWLDQASADEVKGVRYSVFGCGDKNWATTYQKVPAFIDETLAAKGAENIADRGEADASDDFEGTYEEWREHMWSDVAAYFNLDIENSEDNKSTLSLQFVDSAADMPLAKMHGAFSTNVVASKELQQPGSARSTRHLEIELPKEASYQEGDHLGVIPRNYEGTVNRVTARFGLDASQQIRLEAEEEKLAHLPLAKTVSVEELLQYVELQDPVTRTQLRAMAAKTVCPPHKVELEALLEKQAYKEQVLAKRLTMLELLEKYPACEMKFSEFIALLPSIRPRYYSISSSPRVDEKQASITVSVVSGEAWSGYGEYKGIASNYLAELQEGDTITCFISTPQSEFTLPKDPETPLIMVGPGTGVAPFRGFVQARKQLKEQGQSLGEAHLYFGCRSPHEDYLYQEELENAQSEGIITLHTAFSRMPNQPKTYVQHVMEQDGKKLIELLDQGAHFYICGDGSQMAPAVEATLMKSYADVHQVSEADARLWLQQLEEKGRYAKDVWAG
modifications: mutant P450 35-E11 protein sequence
B2: Wild-type BM-3: wild-type cytochrome P450 BM-3 from Bacillus megaterium, SEQ ID NO:1 (protein, listed as Bacillus megaterium)
chain: TIKEMPQPKTFGELKNLPLLNTDKPVQALMKIADELGEIFKFEAPGRVTRYLSSQRLIKEACDESRFDKNLSQALKFVRDFAGDGLFTSWTHEKNWKKAHNILLPSFSQQAMKGYHAMMVDIAVQLVQKWERLNADEHIEVPEDMTRLTLDTIGLCGFNYRFNSFYRDQPHPFITSMVRALDEAMNKLQRANPDDPAYDENKRQFQEDIKVMNDLVDKIIADRKASGEQSDDLLTHMLNGKDPETGEPLDDENIRYQIITFLIAGHETTSGLLSFALYFLVKNPHVLQKAAEEAARVLVDPVPSYKQVKQLKYVGMVLNEALRLWPTAPAFSLYAKEDTVLGGEYPLEKGDELMVLIPQLHRDKTIWGDDVEEFRPERFENPSAIPQHAFKPFGNGQRACIGQQFALHEATLVLGMMLKHFDFEDHTNYELDIKETLTLKPEGFVVKAKSKKIPLGGIPSPSTEQSAKKVRKKAENAHNTPLLVLYGSNMGTAEGTARDLADIAMSKGFAPQVATLDSHAGNLPREGAVLIVTASYNGHPPDNAKQFVDWLDQASADEVKGVRYSVFGCGDKNWATTYQKVPAFIDETLAAKGAENIADRGEADASDDFEGTYEEWREHMWSDVAAYFNLDIENSEDNKSTLSLQFVDSAADMPLAKMHGAFSTNVVASKELQQPGSARSTRHLEIELPKEASYQEGDHLGVIPRNYEGIVNRVTARFGLDASQQIRLEAEEEKLAHLPLAKTVSVEELLQYVELQDPVTRTQLRAMAAKTVCPPHKVELEALLEKQAYKEQVLAKRLTMLELLEKYPACEMKFSEFIALLPSIRPRYYSISSSPRVDEKQASITVSVVSGEAWSGYGEYKGIASNYLAELQEGDTITCFISTPQSEFTLPKDPETPLIMVGPGTGVAPFRGFVQARKQLKEQGQSLGEAHLYFGCRSPHEDYLYQEELENAQSEGIITLHTAFSRMPNQPKTYVQHVMEQDGKKLIELLDQGAHFYICGDGSQMAPAVEATLMKSYADVHQVSEADARLWLQQLEEKGRYAKDVWAG

Assays:
Format in all cases: biochemical
[1] = Kinetic constants for n-alkanes: octane
Description: Rate measurements. Initial rates of product formation were determined at 25° C. in 100 mM KPi pH 8.0 buffer using purified protein (100 nM) and a substrate concentration of 1.6 mM. In a 5 mL-vial, 20 μL of alkane solution (in ethanol) were dissolved in 400 μL KPi buffer, to which 500 μL enzyme solution at 100-200 nM was added. Reaction was initiated by adding 100 μL of 5 mM NADPH solution, followed by stirring at 300 rpm for 1 minute, and quenched by adding 200 μL chloroform and stirring at 800 rpm for 10 sec. Solutions were transferred to an Eppendorf tube, to which internal standard (10 μL 25 mM 1-bromohexane in ethanol) was added. Tubes were vortexed for 10 sec and centrifuged for 30 sec at 10,000 g. Organic phase was removed and analyzed by GC. For propane, reactions were carried out in a 5 mL-scale using 100-400 nM purified enzyme, propane-saturated buffer (propane concentration≈1.6 mM) and a final NADPH concentration of 500 μM. Reactions were stopped by addition of 200 μL H2SO4 conc. and analyzed by derivatization to alkyl nitrites followed by GC-ECD analysis as described below.
(§1) Products from alkane reactions were identified and quantified by gas chromatography using authentic standards and calibration curves with internal standards. For the reactions with alkanes from pentane to decane, GC analyses were carried out using a Shimadzu GC-17A gas chromatograph, Agilent HP5 column (30 m×0.32 mm×0.1 μm film), 1 μL injection, FID detector, and the following separation program: 250° C. inlet, 250° C. detector, 50° C. oven for 3 min, 5° C./min gradient to 100° C., 25° C./min gradient to 230° C., and 230° C. for 3 min. For butane and propane (TTN) reactions, GC analyses were carried out using a Hewlett-Packard 5890 Series II Plus gas chromatograph, Supelco SPB-1 column (60 m×0.52 mm×0.5 μm film), 0.5 μL injection, FID detector, and the following separation program: 250° C. inlet, 275° C. detector, 80° C. oven for 2 min, 10° C./min gradient to 110° C., 25° C./min gradient to 275° C., and 275° C. for 2.5 min. For ethane and propane (rate) reactions, analysis of reaction mixtures was carried out by derivatization to alkyl nitrites followed by GC-ECD analysis. For laurate, reaction product analysis was carried out by derivatization with N-methyl-N-trimethylsilylheptafluorobutyramide followed by extraction with hexane. Organic solutions were analyzed by FID-GC.
To further investigate the evolution of substrate specificity, kinetic constants for the C5 to C8 alkanes were determined from Michaelis-Menten plots (Table 19). The preference of 35E11 and its evolutionary predecessors for medium-chain alkanes is indicated by their high C8/C5 specificities ((kcat/Km)8/(kcat/Km)5˜100), where Km appears to be the major contributing factor. C8/C5 specificity decreases to ˜5 in the immediate precursors of P450PMO and then switches altogether to the smaller alkane, becoming 0.4 in P450PMO. In P450PMO, catalytic efficiency is highest on propane and decreases along the alkane series, driven by decreasing kcat.

[2] = Reactions on alkanes, total turnovers (Table 18): propane; settings: propane (3 C atoms); for % rel. act.: TTN normalized to the highest value of the variant's series; for TTN: total turnovers, standardized reaction conditions
Description: (§2) Reactions on alkanes. Reactions with alkanes from pentane to decane were carried out at 3 mL-scale using 100 mM KPi pH 8.0 buffer containing 2% ethanol (to allow alkane solubilization) and purified protein. 2.5 mL KPi buffer were added with 60 μL of 90 mM alkane solution in ethanol (final conc.=1.8 mM), 150 μL enzyme solution at 1 μM (final conc.=50 nM), and 300 μL NADPH regeneration solution (100 units/mL isocitrate dehydrogenase, 70 mg/mL isocitrate, 1.5 mg/ml NADP^+). Vials were sealed and stirred for 24 hours at 4° C. 1 mL-aliquot of the reaction was removed, added with 10 μl internal standard (25 mM 1-bromohexane in ethanol), and extracted with 200 μl chloroform (30 sec vortexing, 1 min centrifugation at 10000 g). The organic phase was removed and analyzed by gas chromatography. Reactions with ethane, propane, and butane were carried out as described for longer alkanes with the only difference that alkane-saturated KPi buffer was used. Propane reactions with variants from HL5 and L9 libraries were performed on 1 mL-scale reaction using 20 nM enzyme to reduce oxygen limitation. Propane and butane reactions were analyzed by direct injection of reaction solution on the GC using 1-pentanol as internal standard. Ethane reaction products were functionalized (see below) and analyzed by GC using 1-butanol as internal standard. All measurements were performed in triplicate.
as §1
Because 35E11 was only marginally stable, the engineering strategy described herein (see below) involved an initial stabilization step followed by iterative rounds of mutagenesis and screening. Random, saturation and site-directed mutagenesis methods were used to create libraries of mutants (FIG. 35), which were screened for activity on a propane surrogate, dimethyl ether. Positives were confirmed in a re-screen and purified for further analysis. Reactions with purified enzymes were carried out in sealed vials in the presence of propane-saturated buffer and a cofactor regeneration system. Improvement in propane total turnover number-moles of propanol produced per mole of enzyme—was a selection criterion for taking a mutant to the next round.
TTNs for each variant-substrate pair were determined using standardized reaction conditions (identical enzyme and substrate concentration, incubation time, cofactor regeneration system) (Table 18). TTN values were used to assess performance because TTN is a cumulative measure of both catalytic and coupling efficiency and because mutants were selected based on improvement in this property. […]

[3] = Reactions on alkanes, total turnovers (Table 18): nonane; settings: nonane (9 C atoms); for % rel. act.: TTN normalized to the highest value of the variant's series; for TTN: total turnovers, standardized reaction conditions
Description: as §2, §1
(§3) TTNs for each variant-substrate pair were determined using standardized reaction conditions (identical enzyme and substrate concentration, incubation time, cofactor regeneration system) (Table 18). TTN values were used to assess performance because TTN is a cumulative measure of both catalytic and coupling efficiency and because mutants were selected based on improvement in this property. To facilitate comparison among the variants, TTNs were normalized to the highest value in the series (MTN=Maximal Turnover Number) and plotted for the increasing-sized substrates (FIG. 38). A gradual shift of the enzyme's substrate preference during laboratory evolution is evident from these profiles. The marginal activity of wild-type BM3 on these substrates (MTN=150) is restricted to the long-chain alkanes, where it is a promiscuous function of BM3's high C12-C20 fatty acid hydroxylase activity. In the first evolutionary intermediates, substrate preference centers on medium-chain alkanes […], reflecting their selection for activity on octane. In 35E11, selected for activity on propane, preference still centers on C6-C8 alkanes but now extends towards the shorter ones, including propane. Propane activity becomes prevalent with the transition from variant ETS8 to 19A12. […]

[4] = Reactions on alkanes, total turnovers (Table 18): decane; settings: decane (10 C atoms); for % rel. act.: TTN normalized to the highest value of the variant's series; for TTN: total turnovers, standardized reaction conditions
Description: as §2, §1, §3

[5] = Reactions on alkanes, total turnovers (Table 18): pentane; settings: pentane (5 C atoms); for % rel. act.: TTN normalized to the highest value of the variant's series; for TTN: total turnovers, standardized reaction conditions
Description: as §2, §1, §3

Molecule	Km [1] [µM]	kcat [1] [min⁻¹]	% rel. act. [2] [%]	TTN [2]	% rel. act. [3] [%]	TTN [3]	% rel. act. [4] [%]	TTN [4]	% rel. act. [5] [%]	TTN [5]
B1	85 ± 25	390 ± 95	71.7	4550 ± 350	52.6	3350 ± 133	13.5	860 ± 223	75.6	4800 ± 174
B2	> 5000	<5	0.0	0	68.8	110 ± 10	100.0	160 ± 95	0.0	0
